Laboratory results reported in patent US20180326059A1 (GANYMED PHARMACEUTICALS, published 2018).

Target: Claudin 18 splice variant 2 (CLDN18.2), human (human)
Assay: cell-based or functional assay

B1: IMAB362 (antibody, V domains shown)
VH: QVQLQQPGAELVRPGASVKLSCKASGYTFTSYWINWVKQRPGQGLEWIGNIYPSDSYTNYNQKFKDKATLTVDKSSSTAYMQLSSPTSEDSAVYYCTRSWRGNSFDYWGQGTTLTVSS
VL: DIVMTQSPSSLTVTAGEKVTMSCKSSQSLLNSGNQKNYLTWYQQKPGQPPKLLIYWASTRESGVPDRFTGSGSGTDFTLTISSVQAEDLAVYYCQNDYSYPFTFGSGTKLEIKR
modifications: In the in vivo imaging of Example 14 the antibody carried a Dyelight 680 label, site not given; unlabelled in the flow cytometry.
In the case of B1, the “IMAB362-mediated ADCC on NUGC-4 cells, EC50 on chemotherapy-pretreated versus untreated target cells” value is reported as ~0.33 fraction of the EC50 on untreated cells.
